Test results taken from patent publication US20040175758.

Assays:
[1] = target: Bovine recombinant PrP (Prionics), P10279
[2] = target: T1, Q4, synthetic peptide Ac-EKTAGKPILF-OH
T1 chain: EKTAGKPILF

Chain of Bovine recombinant PrP (Prionics), P10279 (P10279 25-242): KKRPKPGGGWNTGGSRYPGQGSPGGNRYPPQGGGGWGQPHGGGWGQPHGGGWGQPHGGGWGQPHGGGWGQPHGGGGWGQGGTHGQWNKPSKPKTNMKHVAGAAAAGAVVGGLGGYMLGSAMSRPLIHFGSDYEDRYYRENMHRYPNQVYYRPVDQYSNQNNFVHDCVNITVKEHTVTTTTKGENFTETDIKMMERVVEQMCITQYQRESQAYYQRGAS

B1: Recombinant FLAG-tagged human GPBP (expressed in yeast, FLAG-affinity purified) (protein)
chain: MSDNQSWNSSGSEEDPETESGPPVERCGVLSKWTNYIHGWQDRWVVLKNNALSYYKSEDETEYGCRGSICLSKAVITPHDFDECRFDISVNDSVWYLRAQDPDHRQQWIDAIEQHKTESGYGSESSLRRHGSMVSLVSGASGYSATSTSSFKKGHSLREKLAEMETFRDILCRQVDTLQKYFDACADAVSKDELQRDKVVEDDEDDFPTTRSDGDFLHSTNGNKEKLFPHVTPKGINGIDFKGEAITFKATTAGILATLSHCIELMVKREDSWQKRLDKETEKKRRTEEAYKNAMTELKKKSHFGGPDYEEGPNSLINEEEFFDAVEAALDRQDKIEEQSQSEKVRLHWPTSLPSGDAFSSVGTHRFVQKPYSRSSSMSSIDLVSASDDVHRFSSQVEEMVQNHMTYSLQDVGGDANWQLVVEEGEMKVYRREVEENGIVLDPLKATHAVKGVTGHEVCNYFWNVDVRNDWETTIENFHVVETLADNAIIIYQTHKRVWPASQRDVLYLSVIRKIPALTENDPETWIVCNFSVDHDSAPLNNRCVRAKINVAMICQTLVSPPEGNQEISRDNILCKITYVANVNPGGWAPASVLRAVAKREYPKFLKRFTSYVQEKTAGKPILF
With B1 the “in vitro phosphorylation with [γ^32P]-ATP, autoradiography” value [1] was “transferred phosphates to PrP” and the “GPBP autophosphorylation in vitro” value [2] was “inhibited GPBP autophosphorylation in a more limited manner”.
